Experimental data taken from article PMC3588154.

Target: human von Willebrand factor (VWF) (human) (UniProt P04275)
Experiment: SPR

| Substance | Kd [pM] | koff [s⁻¹] | kon [M⁻¹ s⁻¹] |
| --- | --- | --- | --- |
| recombinant B-domain-deleted FVIII (rBDD FVIII) (from UniProt P00451 1668-2351) (natural protein) | 260 | 0.00087 | 3.4e+06 |
| recombinant factor VIII–Fc fusion protein (rFVIIIFc) (from UniProt P00451 1668-2351) | 340 | 0.00089 | 2.6e+06 |
